Measurements reported in publication PMC4794390.
Where a chain is given by its changes, count along the chain named. In names and notes the source's numbering stands.

B1: purine nucleoside phosphorylase (PNP) (Homo sapiens) (protein)
chain: MENGYTYEDYKNTAEWLLSHTKHRPQVAIICGSGLGGLTDKLTQAQIFDYGEIPNFPRSTVPGHAGRLVFGFLNGRACVMMQGRFHMYEGYPLWKVTFPVRVFHLLGVDTLVVTNAAGGLNPKFEVGDIMLIRDHINLPGFSGQNPLRGPNDERFGDRFPAMSDAYDRTMRQRALSTWKQMGEQRELQEGTYVMVAGPSFETVAECRVLQKLGADAVGMSTVPEVIVARHCGLRVFGFSLITNKVIMDYESLEKANHEEVLAAGKQAAQKLEQFVSILMASIPLPDKAS
B2: purine nucleoside phosphorylase (PNP) (Homo sapiens; E258D/L261A) (protein)
chain: B1 chain with E258D, L261A

Substrate: Nc1nc2c(ncn2[C@@H]2O[C@H](CO)[C@@H](O)[C@H]2O)c(=O)[nH]1
Experiment: purified protein
Type: biochemical, Homo sapiens
[1] = phosphate catalytic site (His257, Asn243, Glu201)

Row | Protein | Km [1] [µM] | kcat [1] [s⁻¹] | kcat/Km [1] [M⁻¹ s⁻¹] | Km (phosphate catalytic site) [µM] | kcat (phosphate catalytic site) [s⁻¹] | kcat/Km (phosphate catalytic site) [M⁻¹ s⁻¹]
1 | B1 | 63 ± 8 | 8.8 ± 0.5 | 140000 |  |  | 
2 | B2 |  |  |  | 73 ± 13 | 4.2 ± 0.4 | 58000
